Assay results: US7749694

Tests used:
[1] = target: pertactin ectodomain (Prn-E) (Bordetella (species not stated)); experiment: isothermal titration calorimetry (ITC)
[2] = target: pertactin ectodomain (Prn-E) (Bordetella (species not stated)); experiment: static light scattering

Mtd-P1 (major tropism determinant variant of Bordetella bacteriophage BPP-1) (from UniProt Q775D6 1-381)
Kd [1]: 3000 nM
stoichiometry of association between Mtd and Prn-E (Mtd monomers per Prn-E (ratio 3:1)) [2]: 3
